The target of this assay is T1, TAP-purified coatomer (TAP-tagged β′-COP) (S. cerevisiae, UniProt P53622 1-1201; P41811 1-889; P40509 1-296; P41810 1-973; P32074 1-935; P43621 …).
T1 construct: α-COP subunit of coatomer, S. cerevisiae; β′-COP subunit of coatomer, S. cerevisiae, TAP-tagged; ε-COP subunit of coatomer, S. cerevisiae; β-COP subunit of coatomer, S. cerevisiae; γ-COP subunit of coatomer, S. cerevisiae; δ-COP subunit of coatomer, S. cerevisiae; ζ-COP subunit of coatomer, S. cerevisiae; The complex was released by TEV cleavage after the incubation with Glo3; also called …
Briefly: pull-down; TAP-immobilised COPI incubated with a molar excess of MBP-Glo3 (ΔAmpH) for 20 min at 4°C, washed, eluted by TEV cleavage; Coomassie staining and western blots. Conditions: both partners purified.

B1: MBP-Glo3 (ΔAmpH), Glo3 (1–459) lacking its distal amphipathic helix (domain or fragment)
chain: not shown
notes: Glo3, S. cerevisiae, residues 1-459, without the distal amphipathic helix (printed as 459–493); After TEV elution of the complex the eluates were incubated with amylose resin to deplete MBP; also called Glo3 lacking a C-terminal amphipathic helix; source: E. coli Rosetta (DE3) or BL21 (pREP4), purified (Ni-IDA resin), dialysed
As to B1, the binding result is recorded as “binds”.
